Drawing on patent US20040132130, this text covers Km value, OMGnT activity (pmol/hr/mg protein) (pmol/hr/mg protein) and OMGnT relative activity (%) for 2 proteins.

This series addresses T1, Ac-Ala-Ala-Pro-Thr(Man)-Pro-Val-Ala-Ala-Pro-NH2.
T1 chain: AAPTPVAAP

B1: His-Xpress-sOMGnT(S) (protein)
chain: SSAEEAECHWADTELNRRRRRFCSKVEGYGSVCSCKDPTPIEFSPDPLPDNKVLNVPVAVIAGNRPNYLYRMLRSLLSAQGVSPQMITVFIDGYYEEPMDVVALFGLRGIQHTPISIKNARVSQHYKASLTATFNLFPEAKFAVVLEEDLDIAVDFFSFLSQSIHLLEEDDSLYCISAWNDQGYEHTAEDPALLYRVETMPGLGWVLRRSLYKEELEPKWPTPEKLWDWDMWMRMPEQRRGRECIIPDVSRSYHFGIVGLNMNGYFHEAYFKKHKFNTVPGVQLRNVDSLKKEAYEVEVHRLLSEAEVLDHSKNPCEDSFLPDTEGHTYVAFIRMEKDDDFTTWTQLAKCLHIWDLDVRGNHRGLWRLFRKKNHFLVVGVPASPYSVKKPPSVTPIFLEPPPKEEGAPGAPEQT
B1: the Km value is 1360 µM, the OMGnT activity (pmol/hr/mg protein) (pmol/hr/mg protein) was 20 and the OMGnT relative activity (%) was 100%.

B2: His-Xpress-sGnT-I (protein)
chain: SVSALDGDPASLTREVIRLAQDAEVELERQRGLLQQIGDALSSQRGRVPTAAPPAQPRVPVTPAPAVIPILVIACDRSTVRRCLDKLLHYRPSAELFPIIVSQDCGHEETAQAIASYGSAVTHIRQPDLSSIAVPPDHRKFQGYYKIARHYRWALGQVFRQFRFPAAVVVEDDLEVAPDFFEYFRATYPLLKADPSLWCVSAWNDNGKEQMVDASRPELLYRTDFFPGLGWLLLAELWAELEPKWPKAFWDDWMRRPEQRQGRACIRPEISRTMTFGRKGVSHGQFFDQHLKFIKLNQQFVHFTQLDLSYLQREAYDRDFLARVYGAPQLQVEKVRTNDRKELGEVRVQYTGRDSFKAFAKALGVMDDLKSGVPRAGYRGIVTFQFRGRRVHLAPPLTWEGYDPSWN
B2 displayed an OMGnT activity (pmol/hr/mg protein) (pmol/hr/mg protein) of 0.4.
